Source: paper PMC314469, “Protein Interaction Networks by Proteome Peptide Scanning” (PLoS Biology, 2004)

Molecular target: Sho1 SH3 (SHO1_YEAST), P40073
Experiment: SPOT array

Chain of Sho1 SH3 (SHO1_YEAST), P40073 (P40073 295-366): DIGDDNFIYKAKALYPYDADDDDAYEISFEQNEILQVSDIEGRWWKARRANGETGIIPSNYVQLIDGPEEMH

B1: 384-397 DNA ligase (peptide)
chain: TLRPGIPLKPMLAK
- normalised SPOT signal, Boehringer light units (BLU); mean over the file's lines of this peptide: 452

B2: 117-130 Product of gene unknown (peptide)
chain: SSMPNSPKKPVDSL
- normalised SPOT signal, Boehringer light units (BLU); mean over the file's lines of this peptide: 63.7

B3: 663-676 Hypothetical ORF (peptide)
chain: VLEPSKPYKKNPFM
- normalised SPOT signal, Boehringer light units (BLU); mean over the file's lines of this peptide: 121

B4: 472-485 " Anti-silencing protein, involved in transcription" (peptide)
chain: TDSPQLPSKDKSQE
- normalised SPOT signal, Boehringer light units (BLU); mean over the file's lines of this peptide: 81.7

B5: 353-366 Hypothetical ORF (peptide)
chain: SLPPTPPYKAHKKK
- normalised SPOT signal, Boehringer light units (BLU); mean over the file's lines of this peptide: 544

B6: 142-155 ubiquitin-mediated 26S proteasome subunit (peptide)
chain: VSDPYVPTRNTFNY
- normalised SPOT signal, Boehringer light units (BLU); mean over the file's lines of this peptide: 392

B7: 307-320 actin-related protein (peptide)
chain: SMYPGLPSRLEKEL
- normalised SPOT signal, Boehringer light units (BLU); mean over the file's lines of this peptide: 334

B8: 232-245 Hypothetical ORF (peptide)
chain: SSFPTIPLRASSGA
- normalised SPOT signal, Boehringer light units (BLU); mean over the file's lines of this peptide: 210

B9: 505-518 Meiotic regulatory protein; Cys-His zinc fingers (peptide)
chain: SKIPMLPSRRTMAG
- normalised SPOT signal, Boehringer light units (BLU); mean over the file's lines of this peptide: 1130

B10: 155-168 Contains a Rho-GAP domain and two LIM domains. Has strong similarity to Rga1p. Has some similarity to all known Rho-GAPs (peptide)
chain: VKRPLSPTRINGKS
- normalised SPOT signal, Boehringer light units (BLU); mean over the file's lines of this peptide: 160

B11: 386-399 MAL-activator protein (peptide)
chain: VHGPGVPVKTLEIA
- normalised SPOT signal, Boehringer light units (BLU); mean over the file's lines of this peptide: 88

B12: 463-476 global regulator of transcription (peptide)
chain: TKVPSKPDRNSKIL
- normalised SPOT signal, Boehringer light units (BLU); mean over the file's lines of this peptide: 132

B13: 375-388 Weak similarity to Pta1p (pre-tRNA processing protein) (peptide)
chain: VDAPINPTKILTFI
- normalised SPOT signal, Boehringer light units (BLU); mean over the file's lines of this peptide: 174

B14: 210-223 Hypothetical ORF (peptide)
chain: TLIPPIPEKQSIKN
- normalised SPOT signal, Boehringer light units (BLU); mean over the file's lines of this peptide: 86.6

B15: 665-678 Hypothetical ORF (peptide)
chain: SLAPVYPLKSLLRI
- normalised SPOT signal, Boehringer light units (BLU); mean over the file's lines of this peptide: 91.3

B16: 120-133 soluble tyrosine-specific protein phosphatase (peptide)
chain: VDPPFMPFRDAGYS
- normalised SPOT signal, Boehringer light units (BLU); mean over the file's lines of this peptide: -0

B17: 326-339 putative calcium channel (peptide)
chain: VFSPTNPLRIKIAR
- normalised SPOT signal, Boehringer light units (BLU); mean over the file's lines of this peptide: 102

B18: 34-47 Hypothetical ORF (peptide)
chain: TRRPHHPLKQQSTN
- normalised SPOT signal, Boehringer light units (BLU); mean over the file's lines of this peptide: 177

B19: 109-122 actin-related protein (peptide)
chain: TEPPMNPLKNREKM
- normalised SPOT signal, Boehringer light units (BLU); mean over the file's lines of this peptide: 138

B20: 381-394 MAL-activator protein (peptide)
chain: VHGPGIPMKSLEVA
- normalised SPOT signal, Boehringer light units (BLU); mean over the file's lines of this peptide: 198

B21: 110-123 Hypothetical ORF (peptide)
chain: SNNPSKPRKYKTKS
- normalised SPOT signal, Boehringer light units (BLU); mean over the file's lines of this peptide: 332

B22: 572-585 Glutamate synthase (NADPH) (peptide)
chain: TNPPIDPIREANVM
- normalised SPOT signal, Boehringer light units (BLU); mean over the file's lines of this peptide: 0

B23: 547-560 Ubiquitin-specific protease (peptide)
chain: SRKPPIPAKQHVKK
- normalised SPOT signal, Boehringer light units (BLU); mean over the file's lines of this peptide: 1010

B24: 310-323 " similar to Est1, which is a putative component of telomerase" (peptide)
chain: SKGPRTPAKEILEF
- normalised SPOT signal, Boehringer light units (BLU); mean over the file's lines of this peptide: 1610

B25: 758-771 Hypothetical ORF (peptide)
chain: SSTPTTPERPKRKS
- normalised SPOT signal, Boehringer light units (BLU); mean over the file's lines of this peptide: 214

B26: 568-581 negative regulator of prp genes (peptide)
chain: TEVPSKPKKPSKTE
- normalised SPOT signal, Boehringer light units (BLU); mean over the file's lines of this peptide: 79.6

B27: 457-470 transcriptional activator of the SKN7 mediated 'two-component' regulatory system (peptide)
chain: SNDPIPPPRKVSDV
- normalised SPOT signal, Boehringer light units (BLU); mean over the file's lines of this peptide: 108

B28: 59-72 ubiquitin-conjugating enzyme (peptide)
chain: TDYPFKPPKVNFTT
- normalised SPOT signal, Boehringer light units (BLU); mean over the file's lines of this peptide: 74.8

B29: 247-260 Glycine-threonine-serine repeat protein (peptide)
chain: TSTPPLPRRRATTS
- normalised SPOT signal, Boehringer light units (BLU); mean over the file's lines of this peptide: 366

B30: 43-56 (putative) histone deacetylase (peptide)
chain: VKHPMKPFRLMLTD
- normalised SPOT signal, Boehringer light units (BLU); mean over the file's lines of this peptide: 691

B31: 741-754 P-type ATPase (peptide)
chain: VSIPFDPSKDTFDH
- normalised SPOT signal, Boehringer light units (BLU); mean over the file's lines of this peptide: 94.6

B32: 1825-1838 Hypothetical ORF (peptide)
chain: SNSPQIPKKKVKDQ
- normalised SPOT signal, Boehringer light units (BLU); mean over the file's lines of this peptide: 67.2

B33: 108-121 " Probable transcription-associated factor protein, probable -transducin type" (peptide)
chain: SSIPPNPGKTAKPI
- normalised SPOT signal, Boehringer light units (BLU); mean over the file's lines of this peptide: 121

B34: 141-154 methionyl tRNA synthetase (peptide)
chain: SKFPELPSKVHNAV
- normalised SPOT signal, Boehringer light units (BLU); mean over the file's lines of this peptide: 124

B35: 114-127 Centractin (peptide)
chain: TEAPMNPLKNREQM
- normalised SPOT signal, Boehringer light units (BLU); mean over the file's lines of this peptide: 132

B36: 143-156 Hypothetical ORF (peptide)
chain: VQQPEDPLRVLGEY
- normalised SPOT signal, Boehringer light units (BLU); mean over the file's lines of this peptide: 128

B37: 535-548 " cytoskeletal protein, similar to arrestins" (peptide)
chain: VETPPKPIKKDVRF
- normalised SPOT signal, Boehringer light units (BLU); mean over the file's lines of this peptide: 8540

B38: 473-486 positive transcriptional regulator of ADH2 and peroxisomal protein genes (peptide)
chain: SNSPISPHKLIYKN
- normalised SPOT signal, Boehringer light units (BLU); mean over the file's lines of this peptide: 86.9

B39: 176-189 transcriptional activator of the SKN7 mediated 'two-component' regulatory system (peptide)
chain: TTAPRGPKKAQPAQ
- normalised SPOT signal, Boehringer light units (BLU); mean over the file's lines of this peptide: 45.2

B40: 28-41 (putative) cell cycle exonuclease (peptide)
chain: SSRPTSPVRKARST
- normalised SPOT signal, Boehringer light units (BLU); mean over the file's lines of this peptide: 102

B41: 333-346 Hypothetical ORF (peptide)
chain: SNFPDFPLKKYLKN
- normalised SPOT signal, Boehringer light units (BLU); mean over the file's lines of this peptide: 115

B42: 507-520 serine/threonine protein kinase (peptide)
chain: THAPTTPNRTSPNR
- normalised SPOT signal, Boehringer light units (BLU); mean over the file's lines of this peptide: 60.5

B43: 910-923 159-kDa nucleoporin with coiled-coil domain and repeated motifs typical of nucleoporins (peptide)
chain: VENPFLPAKEERTG
- normalised SPOT signal, Boehringer light units (BLU); mean over the file's lines of this peptide: 157

B44: 643-656 Ubiquitin-protein ligase (peptide)
chain: VHDPNIPLRPKEII
- normalised SPOT signal, Boehringer light units (BLU); mean over the file's lines of this peptide: 128

B45: 9-22 cox1 pre-mRNA splicing factor (peptide)
chain: VSTPPVPKKFQEIF
- normalised SPOT signal, Boehringer light units (BLU); mean over the file's lines of this peptide: 235

B46: 86-99 Member of ubiquitin-conjugating protein family (peptide)
chain: SSYPMNPPKISFMQ
- normalised SPOT signal, Boehringer light units (BLU); mean over the file's lines of this peptide: 73.5

B47: 158-171 DNA replication helicase (peptide)
chain: SSTPIVPNRLKTVL
- normalised SPOT signal, Boehringer light units (BLU); mean over the file's lines of this peptide: 161

B48: 1275-1288 Glutamate synthase (NADPH) (peptide)
chain: VIRPGVPTKFTKKQ
- normalised SPOT signal, Boehringer light units (BLU); mean over the file's lines of this peptide: 513

B49: 872-885 Urea amidolyase (contains urea carboxylase and allophanate hydrolase) (peptide)
chain: TPAPNLPEKTRLAL
- normalised SPOT signal, Boehringer light units (BLU); mean over the file's lines of this peptide: 60.9

B50: 54-67 Hypothetical ORF (peptide)
chain: TSAPDIPPRSPNRN
- normalised SPOT signal, Boehringer light units (BLU); mean over the file's lines of this peptide: 107

B51: 519-532 putative zinc finger protein (peptide)
chain: TKTPTQPIRLQTVS
- normalised SPOT signal, Boehringer light units (BLU); mean over the file's lines of this peptide: 40.1

B52: 71-84 Hypothetical ORF (peptide)
chain: SSQPRPPPRPQQNP
- normalised SPOT signal, Boehringer light units (BLU); mean over the file's lines of this peptide: 83.4

B53: 102-115 Hypothetical ORF (peptide)
chain: TPPPVEPLKTKDLA
- normalised SPOT signal, Boehringer light units (BLU); mean over the file's lines of this peptide: 128

B54: 59-72 ubiquitin-conjugating enzyme (peptide)
chain: TDYPFKPPKISFTT
- normalised SPOT signal, Boehringer light units (BLU); mean over the file's lines of this peptide: 178

B55: 478-491 TATA binding protein-associated factor (TAF) (peptide)
chain: VFLPTAPSKHMDFA
- normalised SPOT signal, Boehringer light units (BLU); mean over the file's lines of this peptide: 342

B56: 347-360 Hypothetical ORF (peptide)
chain: TTRPAPPSKAKDVA
- normalised SPOT signal, Boehringer light units (BLU); mean over the file's lines of this peptide: 763

B57: 659-672 Ubiquitin-specific protease (peptide)
chain: VPPPNVPKKDKREV
- normalised SPOT signal, Boehringer light units (BLU); mean over the file's lines of this peptide: 11300

B58: 1667-1680 GTPase activating protein (peptide)
chain: TNYPVNPEKHEMDK
- normalised SPOT signal, Boehringer light units (BLU); mean over the file's lines of this peptide: 29.3

B59: 48-61 Phenylacrylic acid decarboxylase (peptide)
chain: STSPPRPKRIVVAI
- normalised SPOT signal, Boehringer light units (BLU); mean over the file's lines of this peptide: 115
